Earlier results in paper PMC5936680.

Biological target: Hemoglobin αβ dimer (Homo sapiens) (UniProt P69905)

Kd: 1000 nM
Substance: Hemoglobin αβ dimer (from UniProt P69905)
